Tests used:
[1] = target: HiBiT/CXCR4, exogenously (stably) expressed in HEK293 cells (UniProt P61073)
[2] = target: HiBiT/CXCR4, genome-edited, in HEK293 cells (human (endogenous in HEK293)) (UniProt P61073)
[3] = target: HiBiT/ACKR3, exogenously expressed in HEK293 cells (UniProt P25106)
[4] = target: CXCR4/LgBiT, genome-edited, in HEK293 cells (human (endogenous in HEK293)) (UniProt P61073)
[5] = target: CXCR4/LgBiT, transiently transfected in HEK293 cells (UniProt P61073)
[6] = target: NLuc/CXCR4, exogenously (stably) expressed in HEK293 cells (UniProt P61073); test: FRET or BRET; NanoBRET saturation binding on membrane preparations (10 μg membrane protein per well) with NLuc-tagged receptor; increasing CXCL12-AF647 for 60 min at 37°C in HBSS with 0.1% BSA; non-specific binding with AMD3100 (10 μM) for CXCR4 or CXCL11 (10 μM) for ACKR3
[7] = target: NLuc/ACKR3, exogenously (stably) expressed in HEK293 cells (UniProt P25106); test: as above
[8] = target: HiBiT/CXCR4, genome-edited, in HEK293 cells (human (endogenous in HEK293)) (UniProt P61073); test: FRET or BRET; NanoBRET saturation binding on live HEK293 cells with genome-edited HiBiT/CXCR4; CXCL12-AF647 for 60 min at 37°C, then furimazine (10 μM) and purified cell-impermeant LgBiT (10 nM) added, so that only receptors at the plasma membrane are seen; non-specific binding with AMD3100 (10 μM)
[9] = target: NLuc/CXCR4, genome-edited, in HeLa cells (human (endogenous in HeLa)) (UniProt P61073); test: FRET or BRET; NanoBRET saturation binding on live cells (30,000 cells/well) with NLuc-tagged receptor; increasing CXCL12-AF647 for 60 min at 37°C in HBSS with 0.1% BSA; non-specific binding with AMD3100 (10 μM) for CXCR4 or CXCL11 (10 μM) for ACKR3; furimazine 10 μM
[10] = target: NLuc/CXCR4, genome-edited, in HEK293 cells (human (endogenous in HEK293)) (UniProt P61073); test: as above
[11] = target: NLuc/ACKR3, genome-edited, in HeLa cells (human (endogenous in HeLa)) (UniProt P25106); test: as above
[12] = target: NLuc/ACKR3, exogenously (stably) expressed in HEK293 cells (UniProt P25106); test: as above
[13] = target: HiBiT/CXCR4, genome-edited, in HEK293 cells (human (endogenous in HEK293)) (UniProt P61073); test: split reporter (BiFC, NanoBiT); HiBiT-LgBiT complementation, saturation on membrane preparations (10 μg, 0.25 mg/ml saponin) from genome-edited HiBiT/CXCR4 HEK293 cells; increasing purified LgBiT; in the presence of AMD3100 (10 μM)
[14] = target: HiBiT/CXCR4, genome-edited, in HEK293 cells (human (endogenous in HEK293)) (UniProt P61073); test: split reporter (BiFC, NanoBiT); HiBiT-LgBiT complementation, saturation on membrane preparations (10 μg, 0.25 mg/ml saponin) from genome-edited HiBiT/CXCR4 HEK293 cells; increasing purified LgBiT; without AMD3100
[15] = target: HiBiT/CXCR4, genome-edited, in HEK293 cells (human (endogenous in HEK293)) (UniProt P61073); test: split reporter (BiFC, NanoBiT); HiBiT-LgBiT complementation, saturation on live HEK293 cells with genome-edited HiBiT/CXCR4; increasing purified LgBiT; in the presence of AMD3100 (10 μM)
[16] = target: HiBiT/β2-adrenoceptor, genome-edited, in HEK293 cells (human (endogenous in HEK293)) (UniProt P07550); test: split reporter (BiFC, NanoBiT); HiBiT-LgBiT complementation, saturation on live HEK293 cells with genome-edited HiBiT-tagged receptor; increasing purified LgBiT for 30 min at 37°C in HBSS with 0.1% BSA; without AMD3100; non-specific luminescence on wild-type cells
[17] = target: HiBiT/CXCR4, genome-edited, in HEK293 cells (human (endogenous in HEK293)) (UniProt P61073); test: as above
[18] = target: HiBiT-Halotag, control peptide; test: split reporter (BiFC, NanoBiT); HiBiT-LgBiT complementation of purified proteins: 1 nM HiBiT-Halotag in HBSS with 0.1% BSA, increasing purified LgBiT; in the presence of AMD3100 (10 μM)
[19] = target: HiBiT-Halotag, control peptide; test: split reporter (BiFC, NanoBiT); HiBiT-LgBiT complementation of purified proteins: 1 nM HiBiT-Halotag in HBSS with 0.1% BSA, increasing purified LgBiT; without AMD3100

**Q.** Which results are given for “CXCL12 (from UniProt P48061 22-93) (ligand)”?
**A.** pEC50 of CXCL12 for the decrease in luminescence (cell surface HiBiT/CXCR4 complemented with purified LgBiT, 10 nM) after 1 h at 37°C, live HEK293 cells stably overexpressing HiBiT/CXCR4 [1]: 8.69 -log M; pEC50 of CXCL12 for the decrease in luminescence (cell surface HiBiT/CXCR4 complemented with purified LgBiT, 10 nM) after 1 h at 37°C, live genome-edited HEK293 cells [2]: 8.46 -log M; pEC50 of CXCL12 for the increase in luminescence of live HEK293 cells with exogenous HiBiT/ACKR3 complemented with purified LgBiT [3]: 8.23 -log M; pEC50 of CXCL12 (0.3-300 nM) for the increase in NanoBiT luminescence (recruitment of genome-edited β-arrestin2/SmBiT, m14, to genome-edited CXCR4/LgBiT), about 5 min after ligand addition [4]: 7.16 -log M; pEC50 of CXCL12 (0.3-300 nM) for the increase in NanoBiT luminescence (recruitment of transiently transfected β-arrestin2/SmBiT, m13, to genome-edited CXCR4/LgBiT), about 5 min after ligand addition [4]: 7.69 -log M; pEC50 of CXCL12 (0.3-300 nM) for the increase in NanoBiT luminescence (recruitment of genome-edited β-arrestin2/SmBiT, m14, to transiently transfected CXCR4/LgBiT), about 5 min after ligand addition [5]: 7.48 -log M

**Q.** For “CXCL12-AF647 (from UniProt P48061 22-93) (ligand)”, which pKd [6] is on record?
**A.** Its pKd is 7.55 -log M.

**Q.** What about the pKd [7] of the same molecule?
**A.** The pKd was 8.83 -log M.

**Q.** And the pKd [8]?
**A.** The pKd was 7.49 -log M.

**Q.** What about the pKd [9] of the same molecule?
**A.** Its pKd is 7.58 -log M.

**Q.** And the pKd [10]?
**A.** Its pKd is 7.5 -log M.

**Q.** And the pKd [11]?
**A.** Its pKd is 8.77 -log M.

**Q.** What about the pKd [12] of the same molecule?
**A.** Its pKd is 8.12 -log M.

**Q.** Which Kd [13] does the source give for Purified LgBiT (domain or fragment) here?
**A.** The Kd was 115 nM.

**Q.** And the Kd [14]?
**A.** Its Kd is 180 nM.

**Q.** What about the Kd [15] of the same molecule?
**A.** Its Kd is 58.5 nM.

**Q.** What about the Kd [16] of the same molecule?
**A.** The Kd was 54.5 nM.

**Q.** And the Kd [17]?
**A.** The Kd was 230 nM.

**Q.** And the Kd [18]?
**A.** Its Kd is 7.73 nM.

**Q.** And the Kd [19]?
**A.** The Kd was 6.99 nM.

B1: CXCL11 (ligand)
chain: FPMFKRGRCLCIGPGVKAVKVADIEKASIMYPSNNCDKIEVIITLKENKGQRCLNPKSKQARLIIKKVERKNF
**Q.** How did the pEC50 of CXCL11 for the increase in luminescence of live HEK293 cells with exogenous HiBiT/ACKR3 complemented with purified LgBiT [3] turn out when B1 was run?
**A.** Its pEC50 of CXCL11 for the increase in luminescence of live HEK293 cells with exogenous HiBiT/ACKR3 complemented with purified LgBiT is 7.48 -log M.

— publication PMC7242902
